Assays:
Format in all cases: physicochemical
[1] = GdnHCl- and urea-induced unfolding at 25° C. by circular dichroism (Example 2); conditions: CD
Experimental: The thermodynamic stability of A1 and of RCAM A1 was determined from GdnHCl and urea induced unfolding measured via CD and FL at 25° Celsius (FIG. 14). […] Complete unfolding of A1 and of RCAM A1 occurs in GdnHCl but not in urea. However, in presence of urea, a small expansion of RCAM A1 compared to A1 in its intermediate state is observed.
(§1) Urea and GdnHCl induced unfolding of A1 and of RCAM A1 at 25° Celsius was monitored via CD at 222 nm on an Aviv Biomedical Model 420C circular dichroism spectrometer. A 1 mm quartz cuvette and protein concentrations of 5 or 10 μM were used. Samples were equilibrated in their urea or GdnHCl containing buffer at 25° Celsius overnight. CD-signal was averaged for 5 to 10 min using an integration time of 1 s. CD-spectra were measured at 20° Celsius using 0.1 or 1 mm quartz cells with a step width of 1 nm between 190 and 260 nm with an integration time of 20 s and a bandwidth of 1 nm. CD-spectra in the near UV range (260-360 nm) were recorded using a 5 cm quartz cell with a 120 s integration time. Transition curves and protein spectra were corrected for the CD Signal of the corresponding buffer.

[2] = Acrylamide quenching of tryptophan fluorescence (Stern-Volmer)
Experimental: This was also confirmed via acrylamide induced tryotophan fluorescence quenching performed with an excitation wavelength of 295 nm.
Initially a quenching determination was performed with disulfide-intact A1 at 20° Celsius and at 1° Celsius in order to distinguish between static and collisional quenching. […] Clear evidence for collisional quenching could be obtained for the A1-domain since the Stern-Volmer constant decreased from 2.6±0.03 to 2.2±0.03 M−1, FIG. 16A, ruling out a static quenching mechanism.
Acrylamide quenching of tryptophan was performed using an excitation wavelength of 295 nm. After the addition of a certain amount of buffered acrylamide solution the protein solution was equilibrated for ˜5 min and then a fluorescence spectrum between 320 and 400 nm was recorded. Stern-Volmer constants were determined from the fluorescence intensity at 359 nm using the Stern-Volmer equation as described by Lakowicz (Lakowicz:2006)
where KD is the Stern-Volmer quenching constant and KD-1 is the concentration of acrylamide at which F0/F=2 and 50% of the fluorescence intensity is quenched.

[3] = Secondary structure contribution calculated from CD-spectra (CDNN)
Experimental: Fluorescence and circular dichroism spectra of A1 and of RCAM A1 were measured to compare the basic spectroscopic properties of the two protein variants (FIG. 13). The fluorescence spectrum of native A1 has a relatively low intensity with λmax of ˜345 nm. In presence of 2 M GdnHCl the fluorescence intensity increases as the interior of the protein becomes solvent accessible and a red shift of the spectrum to ˜351 nm occurs. […] Nevertheless, RCAM A1 is still retains significant secondary structure content in solution; the distribution of which is summarized in Table 1. In the near UV, the CD of disulfide-intact A1 show a well-defined spectral banding pattern between 260 and 300 nm indicating significant tertiary structure content that is absent in RCAM A1.
as §1

[4] = Conformational and thermodynamic classification of A1 domain variants (urea and thermal denaturation, CD, FL, ANS)
Experimental: Circular dichroism measurements were performed on a Model No. 420C circular-dichroism spectrometer (Aviv Biomedical, Inc., Lakewood Township, N.J.). All fluorescence (FL) measurements were performed on a Fluorolog3 spectrofluorometer (HORIBA Jobin-Yvon, Edison, N.J.) equipped with a Model No. LF1-3751 temperature controller (Wavelength Electronics Inc., Bozeman, Mont.). Near- and far-ultraviolet (UV) circular dichroism (CD), intrinsic protein FL, and ANS (8-anilino naphthalene sulfonic acid) […] spectra were determined as described in Tischer et al. (19). Urea denaturation (monitored by far-UV CD) and thermal denaturation (monitored by far-UV CD, intrinsic protein FL, and ANS FL) were performed and analyzed as previously described (19,20). Acrylamide quenching of intrinsic tryptophan fluorescence was performed and analyzed as described in Tischer et al. (19). All spectra were collected at 20° C.
The effects of mutations on the thermodynamic stability of A1 (18) was determined and a framework that incorporated partial unfolding as a means for enhancing the binding affinity of A1 for GPIba was developed (17). Initially, urea-temperature phase diagram method were used for assessing the reversible thermodynamics of unfolding at various temperatures (18,21), and more recently thermal denaturations were used to assess kinetic irreversibility (20,22). The inventor employed these methods using a variety of spectroscopic observables that assess the conformation of these A1 domain variants as a function of temperature and urea.
The observables included the following: (1) Far-UV CD to assess secondary structure content; (2) Near-UV CD to assess tertiary structure content; (3) Intrinsic protein FL to assess solvent exposure of tyrosine and tryptophan residues; (4) Acrylamide quenching of tryptophan FL to assess local solvent exposure of the single tryptophan residue; and (5) Binding of the molten globule indicator-dye, ANS, to assess exposure of hydrophobic surface area.
In total, these studies have provided metrics that are able to classify the conformation of A1 into three types, based on biophysical spectroscopy, as follows:
The type 2B mutations R1306Q and I1309V and the type 2M mutation G1324S have previously been characterized in this conformational class (18). In addition, R1308L and I1372S also belong to this class.
The type 2M mutation A1437T and the type 2B mutation R1341Q belong to this class.
The type 2M mutations F1369I, E1359K, I1425F, S1285F, and R1374H, and the type 2B mutations H1268D, P1337L, V1316M, and V1314D, belong to this class.

[5] = calculated from CD-spectra, CDNN

Q: Which results are given for “A1-1238: Recombinant human vWF A1 domain, amino acids Q1238-P1471, with N-terminal 6×His-Tag, disulfide intact”?
A: cm, I ⇄ D ([1]; GdnHCl): 4.40 ± 0.02 M; cm, N ⇄ I ([1]; GdnHCl): 0.819 ± 0.006 M; m-value, I ⇄ D ([1]; GdnHCl): −6.66 ± 0.30 kJ/mol/M; m-value, N ⇄ I ([1]; GdnHCl): −18.67 ± 0.76 kJ/mol/M; ΔG^0, I ⇄ D ([1]; GdnHCl): 7.003 ± 0.315 kcal/mol; ΔG^0, N ⇄ I ([1]; GdnHCl): 3.654 ± 0.151 kcal/mol; cm, I ⇄ D ([1]; Urea): 10.03 ± 0.19 M; cm, N ⇄ I ([1]; Urea): 2.85 ± 0.02 M; m-value, I ⇄ D ([1]; Urea): −3.35 ± 0.62 kJ/mol/M; m-value, N ⇄ I ([1]; Urea): −4.70 ± 0.17 kJ/mol/M; ΔG^0, I ⇄ D ([1]; Urea): 8.03 ± 1.49 kcal/mol; ΔG^0, N ⇄ I ([1]; Urea): 3.203 ± 0.117 kcal/mol; Stern-Volmer constant ([2]; 2 M GdnHCl): 6.0 ± 0.1 M⁻¹; Stern-Volmer constant ([2]; buffer, 1° Celsius): 2.2 ± 0.03 M⁻¹; Stern-Volmer constant ([2]; buffer, 20° Celsius): 2.6 ± 0.03 M⁻¹; % α-Helix [3, 5]: 38.0%; % β-sheet [3, 5]: 15.6%; % Remainder ([3]; β-turns and random coil structure): 46.4%; A1 domain Conformation [4]: N (N = “Native” (native structure with varying thermodynamic stability))

Source: patent publication US20150160214A1, “Quantitation of Cellular Adhesion Dynamics Across Immobilized Receptors Under Rheological Shear Flow” (Mayo Foundation for Medical Education and Research, priority 2013, published 2015)
